The supplement of paper PMC9112550, “Optimization of the antimicrobial peptide Bac7 by deep mutational scanning” (BMC Biology, 2022)

What follows are sequences tested on Escherichia coli TOP10 (assay: shrunken log2 fold change of peptide-encoding DNA abundance (4.5 h post-induction vs induction); higher = less antimicrobial activity (less host growth inhibition)). Conditions: time post-induction: 4.5 h; library: site-saturation at positions 5, 18, 19, 20.
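Note: peptides expressed intracellularly from a pBAD plasmid library in pooled LB shake-flask culture, induced with 0.3% L-arabinose, DNA abundance read by NGS, three biological replicates, DESeq2 with apeglm shrinkage.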

Sequence | shrunken log2 fold change
RRIRFRPPRLPRPRPRPDQSPRP | 0.0148
RRIRFRPPRLPRPRPRPDRKPRP | 0.00132
RRIRFRPPRLPRPRPRPDSIPRP | -0.0087
RRIRFRPPRLPRPRPRPDTAPRP | -0.22
RRIRFRPPRLPRPRPRPDTEPRP | -0.776
RRIRFRPPRLPRPRPRPDTGPRP | -0.356
RRIRFRPPRLPRPRPRPDVSPRP | 0.0432
RRIRFRPPRLPRPRPRPDYFPRP | -0.167
RRIRFRPPRLPRPRPRPEAYPRP | -0.0029
RRIRFRPPRLPRPRPRPECCPRP | 0.225
RRIRFRPPRLPRPRPRPECPPRP | 0.0177
RRIRFRPPRLPRPRPRPECVPRP | 0.0137
RRIRFRPPRLPRPRPRPEDAPRP | 0.00922
RRIRFRPPRLPRPRPRPEDGPRP | 0.333
RRIRFRPPRLPRPRPRPEDLPRP | 0.143
RRIRFRPPRLPRPRPRPEDQPRP | 0.502
RRIRFRPPRLPRPRPRPEERPRP | 0.477
RRIRFRPPRLPRPRPRPEFFPRP | -0.153
RRIRFRPPRLPRPRPRPEGEPRP | -0.0563
RRIRFRPPRLPRPRPRPEHIPRP | -0.161
RRIRFRPPRLPRPRPRPEIEPRP | 0.0594
RRIRFRPPRLPRPRPRPEIHPRP | -0.227
RRIRFRPPRLPRPRPRPEINPRP | -0.00788
RRIRFRPPRLPRPRPRPELKPRP | -0.0455
RRIRFRPPRLPRPRPRPELQPRP | 0.348

Sequence | shrunken log2 fold change
RRIRFRPPRLPRPRPRPELYPRP | 0.0341
RRIRFRPPRLPRPRPRPEMNPRP | -0.253
RRIRFRPPRLPRPRPRPENDPRP | 0.0619
RRIRFRPPRLPRPRPRPENHPRP | -0.84
RRIRFRPPRLPRPRPRPEQGPRP | 0.313
RRIRFRPPRLPRPRPRPEQNPRP | 0.264
RRIRFRPPRLPRPRPRPERKPRP | 0.0154
RRIRFRPPRLPRPRPRPESVPRP | 0.257
RRIRFRPPRLPRPRPRPETKPRP | -0.0125
RRIRFRPPRLPRPRPRPEVLPRP | -0.0031
RRIRFRPPRLPRPRPRPEWKPRP | 0.0211
RRIRFRPPRLPRPRPRPEYRPRP | -0.218
RRIRFRPPRLPRPRPRPEYVPRP | -0.15
RRIRFRPPRLPRPRPRPFAMPRP | -0.326
RRIRFRPPRLPRPRPRPFASPRP | -0.705
RRIRFRPPRLPRPRPRPFEHPRP | -0.0558
RRIRFRPPRLPRPRPRPFELPRP | -0.0457
RRIRFRPPRLPRPRPRPFETPRP | -0.158
RRIRFRPPRLPRPRPRPFFRPRP | -0.213
RRIRFRPPRLPRPRPRPFFYPRP | -0.308
RRIRFRPPRLPRPRPRPFHCPRP | -0.102
RRIRFRPPRLPRPRPRPFIFPRP | -0.544
RRIRFRPPRLPRPRPRPFIMPRP | -0.655
RRIRFRPPRLPRPRPRPFKEPRP | -0.173
RRIRFRPPRLPRPRPRPFMCPRP | -0.98

Sequence | shrunken log2 fold change
RRIRFRPPRLPRPRPRPFNQPRP | -0.161
RRIRFRPPRLPRPRPRPFPTPRP | -0.0582
RRIRFRPPRLPRPRPRPFQDPRP | 0.0171
RRIRFRPPRLPRPRPRPFQNPRP | -0.041
RRIRFRPPRLPRPRPRPFQPPRP | -0.334
RRIRFRPPRLPRPRPRPFRIPRP | -0.687
RRIRFRPPRLPRPRPRPFRYPRP | -0.151
RRIRFRPPRLPRPRPRPFTAPRP | -0.662
RRIRFRPPRLPRPRPRPFTSPRP | -0.316
RRIRFRPPRLPRPRPRPFVDPRP | -0.121
RRIRFRPPRLPRPRPRPFWAPRP | 0.166
RRIRFRPPRLPRPRPRPFWDPRP | -0.374
RRIRFRPPRLPRPRPRPFWYPRP | -0.102
RRIRFRPPRLPRPRPRPGAEPRP | 0.286
RRIRFRPPRLPRPRPRPGDFPRP | -0.209
RRIRFRPPRLPRPRPRPGEWPRP | -0.0225
RRIRFRPPRLPRPRPRPGFEPRP | -0.0266
RRIRFRPPRLPRPRPRPGFHPRP | -0.416
RRIRFRPPRLPRPRPRPGFQPRP | 0.0959
RRIRFRPPRLPRPRPRPGFWPRP | 0.24
RRIRFRPPRLPRPRPRPGGDPRP | 0.37
RRIRFRPPRLPRPRPRPGGHPRP | -0.00918
RRIRFRPPRLPRPRPRPGGIPRP | -0.0183
RRIRFRPPRLPRPRPRPGGPPRP | 0.511
RRIRFRPPRLPRPRPRPGHCPRP | 0.0688

Sequence | shrunken log2 fold change
RRIRFRPPRLPRPRPRPGHDPRP | 0.062
RRIRFRPPRLPRPRPRPGHLPRP | -0.459
RRIRFRPPRLPRPRPRPGIHPRP | -0.0365
RRIRFRPPRLPRPRPRPGITPRP | -0.45
RRIRFRPPRLPRPRPRPGKHPRP | -0.294
RRIRFRPPRLPRPRPRPGKYPRP | -0.586
RRIRFRPPRLPRPRPRPGLHPRP | 0.159
RRIRFRPPRLPRPRPRPGMNPRP | -0.147
RRIRFRPPRLPRPRPRPGNWPRP | 0.724
RRIRFRPPRLPRPRPRPGPMPRP | 0.104
RRIRFRPPRLPRPRPRPGRHPRP | 0.0867
RRIRFRPPRLPRPRPRPGRLPRP | 0.262
RRIRFRPPRLPRPRPRPGSWPRP | 0.244
RRIRFRPPRLPRPRPRPGTPPRP | 0.292
RRIRFRPPRLPRPRPRPGWPPRP | 0.489
RRIRFRPPRLPRPRPRPGWTPRP | -0.115
RRIRFRPPRLPRPRPRPGYRPRP | -0.0212
RRIRFRPPRLPRPRPRPHDIPRP | -0.0788
RRIRFRPPRLPRPRPRPHFDPRP | -0.107
RRIRFRPPRLPRPRPRPHHHPRP | -0.678
RRIRFRPPRLPRPRPRPHHWPRP | -0.499
RRIRFRPPRLPRPRPRPHHYPRP | -0.681
RRIRFRPPRLPRPRPRPHKAPRP | 0.0324
RRIRFRPPRLPRPRPRPHKGPRP | -0.0598
RRIRFRPPRLPRPRPRPHKVPRP | -0.196

Sequence | shrunken log2 fold change
RRIRFRPPRLPRPRPRPHLGPRP | 0.0424
RRIRFRPPRLPRPRPRPHMMPRP | -0.283
RRIRFRPPRLPRPRPRPHNGPRP | -0.0493
RRIRFRPPRLPRPRPRPHNVPRP | 0.0631
RRIRFRPPRLPRPRPRPHPRPRP | 0.5
RRIRFRPPRLPRPRPRPHQDPRP | -0.0339
RRIRFRPPRLPRPRPRPHRAPRP | -0.0573
RRIRFRPPRLPRPRPRPHRSPRP | -0.222
RRIRFRPPRLPRPRPRPHSKPRP | -0.327
RRIRFRPPRLPRPRPRPHTGPRP | -0.411
RRIRFRPPRLPRPRPRPHVYPRP | -0.0438
RRIRFRPPRLPRPRPRPHYQPRP | -0.0104
RRIRFRPPRLPRPRPRPIAHPRP | -0.109
RRIRFRPPRLPRPRPRPIALPRP | -0.222
RRIRFRPPRLPRPRPRPIASPRP | -0.015
RRIRFRPPRLPRPRPRPIEYPRP | -0.00801
RRIRFRPPRLPRPRPRPIFGPRP | 0.449
RRIRFRPPRLPRPRPRPIIPPRP | -0.677
RRIRFRPPRLPRPRPRPIISPRP | -0.332
RRIRFRPPRLPRPRPRPIKDPRP | -0.234
RRIRFRPPRLPRPRPRPIKFPRP | -0.587
RRIRFRPPRLPRPRPRPIKLPRP | -0.825
RRIRFRPPRLPRPRPRPIKNPRP | -0.514
RRIRFRPPRLPRPRPRPIKPPRP | -0.4
RRIRFRPPRLPRPRPRPIKQPRP | -0.0488

Sequence | shrunken log2 fold change
RRIRFRPPRLPRPRPRPIKVPRP | -0.379
RRIRFRPPRLPRPRPRPILCPRP | -0.192
RRIRFRPPRLPRPRPRPILGPRP | 0.0151
RRIRFRPPRLPRPRPRPILSPRP | -0.101
RRIRFRPPRLPRPRPRPIMCPRP | -0.273
RRIRFRPPRLPRPRPRPIRTPRP | -0.0861
RRIRFRPPRLPRPRPRPISGPRP | 0.00212
RRIRFRPPRLPRPRPRPITMPRP | -0.503
RRIRFRPPRLPRPRPRPITQPRP | -0.278
RRIRFRPPRLPRPRPRPIVRPRP | -0.0797
RRIRFRPPRLPRPRPRPIWDPRP | -0.319
RRIRFRPPRLPRPRPRPIYYPRP | -1.24
RRIRFRPPRLPRPRPRPKCHPRP | -0.42
RRIRFRPPRLPRPRPRPKEHPRP | -0.357
RRIRFRPPRLPRPRPRPKELPRP | -0.127
RRIRFRPPRLPRPRPRPKEMPRP | -0.0141
RRIRFRPPRLPRPRPRPKEWPRP | -0.00364
RRIRFRPPRLPRPRPRPKLLPRP | 0.0539
RRIRFRPPRLPRPRPRPKNHPRP | -0.347
RRIRFRPPRLPRPRPRPKPAPRP | 0.739
RRIRFRPPRLPRPRPRPKPGPRP | 0.446
RRIRFRPPRLPRPRPRPKQAPRP | -0.0316
RRIRFRPPRLPRPRPRPKQHPRP | -0.176
RRIRFRPPRLPRPRPRPKQIPRP | -0.218
RRIRFRPPRLPRPRPRPKQYPRP | -0.43
